Test results from paper PMC9171633 (Proceedings of the National Academy of Sciences of the …, 2022).

Target: KRas WT G domain (UniProt P01116-1 1-166)
Experiment: pull-down

- binding result: binds
B1: GST-RBD (domain or fragment)
chain: GLTSKESLFVRINAAHGFSLIQVDNTKVTMKEILLKAVKRRKGSQKVSGPQYRLEKQSEPNVAVDLDSTLESQSAWEFCLVRENSSRAD
